Measured values: US20190300590A1 (PROTAGONIST THERAPEUTICS, published 2019)
Bridges are numbered along the chain shown (N, C = ends). [ ]: non-standard residue; d: D form. 2Nal = N[C@@H](Cc1ccc2ccccc2c1)C(=O)O; AEF = NCCOc1ccc(C[C@H](N)C(=O)O)cc1; NMeR = CN[C@@H](CCCNC(=N)N)C(=O)O; Cit = NC(=O)NCCC[C@H](N)C(=O)O; αMeL = CC(C)C[C@](C)(N)C(=O)O; NMeK = CN[C@@H](CCCCN)C(=O)O; αMeK = C[C@](N)(CCCCN)C(=O)O; Ac5c = NC1(C(=O)O)CCCC1; Abu = CC[C@H](N)C(=O)O; Dap = NC[C@H](N)C(=O)O; Aib = CC(C)(N)C(=O)O; PEG1 = NCCOCCC(=O)O; AEA = NCCOCC(=O)O; βAla = NCCC(=O)O

T1: IL23R_huFC (human, UniProt Q5VWK5 24-353)
T1 sequence (looked up): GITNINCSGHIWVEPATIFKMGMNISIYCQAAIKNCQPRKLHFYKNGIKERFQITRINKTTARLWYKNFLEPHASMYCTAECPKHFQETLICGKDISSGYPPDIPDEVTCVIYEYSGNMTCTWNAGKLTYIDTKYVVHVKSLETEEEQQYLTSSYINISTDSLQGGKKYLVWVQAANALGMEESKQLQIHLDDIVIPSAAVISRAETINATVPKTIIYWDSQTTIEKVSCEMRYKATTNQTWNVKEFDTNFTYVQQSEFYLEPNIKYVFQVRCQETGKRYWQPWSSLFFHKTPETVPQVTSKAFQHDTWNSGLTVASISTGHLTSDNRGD

T2: IL-23R on human cells (IL-23R-expressing DB cells; human NK cells) (human, UniProt Q5VWK5 24-629)
T2 sequence (looked up): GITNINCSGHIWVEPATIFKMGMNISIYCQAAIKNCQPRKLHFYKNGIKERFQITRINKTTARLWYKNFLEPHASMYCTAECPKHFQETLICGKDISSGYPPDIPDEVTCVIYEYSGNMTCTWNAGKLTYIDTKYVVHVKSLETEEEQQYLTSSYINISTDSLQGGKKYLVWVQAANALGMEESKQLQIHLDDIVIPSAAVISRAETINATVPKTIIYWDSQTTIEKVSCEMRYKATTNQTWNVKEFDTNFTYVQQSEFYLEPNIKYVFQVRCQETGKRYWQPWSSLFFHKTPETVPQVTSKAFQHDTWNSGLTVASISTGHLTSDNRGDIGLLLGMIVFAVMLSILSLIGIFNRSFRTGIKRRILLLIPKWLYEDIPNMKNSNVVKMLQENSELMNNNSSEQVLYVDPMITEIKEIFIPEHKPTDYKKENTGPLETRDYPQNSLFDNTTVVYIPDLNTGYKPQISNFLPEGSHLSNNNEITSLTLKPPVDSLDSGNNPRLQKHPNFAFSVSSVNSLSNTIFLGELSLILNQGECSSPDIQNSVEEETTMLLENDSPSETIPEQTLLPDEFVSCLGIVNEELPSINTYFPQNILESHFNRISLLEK


Legend:
IL23R_huFC = target: T1, IL23R_huFC; assay: IL23-IL23R competitive ELISA
[1] = target: T2, IL-23R on human cells …; assay: cell-based or functional assay

| Binder | IC50 (IL23R_huFC) [µM] | pStat3 HTRF IC50 [1] [nM] |
| --- | --- | --- |
| Ac-CADWECYWHTFG-NH2 (disulfide 1-6 (inferred)) [Ac-CADWECYWHTFG-NH2] | > 1 | – |
| Ac-CADWVCYWHTF[dK]-OH (disulfide 1-6 (inferred)) [Ac-CADWVCYWHTF-[(D)Lys]-OH] | > 1 | – |
| Ac-CADWVCYWKTFG-OH (disulfide 1-6 (inferred)) [Ac-CADWVCYWKTFG-OH] | > 1 | – |
| Ac-CADWVCYWHKFG-OH (disulfide 1-6 (inferred)) [Ac-CADWVCYWHKFG-OH] | > 1 | – |
| Ac-CATWVCYWHTFG-NH2 (disulfide 1-6 (inferred)) [Ac-CATWVCYWHTFG-NH2] | > 1 | – |
| Ac-CADWKCYWHTFG-OH (disulfide 1-6 (inferred)) [Ac-CADWKCYWHTFG-OH] | > 1 | – |
| Ac-CADWVCYWHTKG-OH (disulfide 1-6 (inferred)) [Ac-CADWVCYWHTKG-OH] | > 1 | – |
| Ac-CQTWQCYW[dR]ENG[AEA][dK]-NH2 (disulfide 1-6 (inferred)) [Ac-CQTWQCYW-[(D)Arg]-ENG-[AEA]-[(D)-Lys]-NH2] | > 1 | – |
| Ac-CRDWQCYW[NMeR]KFG[PEG1][dK]-NH2 (disulfide 1-6; SMILES CC(=O)N[C@H]1CSSC[C@@H](C(=O)N[C@@H](Cc2ccc(O)cc2)C(=O)N[C@@H](Cc2c[nH]c3ccccc23)C(=O)N(C)[C@@H](CCCNC(=N)N)C(=O)N[C@@H](CCCCN)C(=O)N[C@@H](Cc2ccccc2)C(=O)NCC(=O)NCCOCCC(=O)N[C@H](CCCCN)C(N)=O)NC(=O)[C@H](CCC(N)=O)NC(=O)[C@H](Cc2c[nH]c3ccccc23)NC(=O)[C@H](CC(=O)O)NC(=O)[C@H](CCCNC(=N)N)NC1=O) [Ac-CRDWQCYW-[N-MeArg]-KFG-[AEP]-[(D)-Lys]-NH2] | > 1 | – |
| Ac-CQTWQCYWR[NMeK]NG[AEA][dK]-NH2 (disulfide 1-6; SMILES CC(=O)N[C@H]1CSSC[C@@H](C(=O)N[C@@H](Cc2ccc(O)cc2)C(=O)N[C@@H](Cc2c[nH]c3ccccc23)C(=O)N[C@@H](CCCNC(=N)N)C(=O)N(C)[C@@H](CCCCN)C(=O)N[C@@H](CC(N)=O)C(=O)NCC(=O)NCCOCC(=O)N[C@H](CCCCN)C(N)=O)NC(=O)[C@H](CCC(N)=O)NC(=O)[C@H](Cc2c[nH]c3ccccc23)NC(=O)[C@H]([C@@H](C)O)NC(=O)[C@H](CCC(N)=O)NC1=O) [Ac-CQTWQCYWR-[N-MeLys]-NG-[AEA]-[(D)-Lys]-NH2] | > 1 | – |
| Ac-CRDWQCYW[dR]KFG[PEG1][dK]-NH2 (disulfide 1-6; SMILES CC(=O)N[C@H]1CSSC[C@@H](C(=O)N[C@@H](Cc2ccc(O)cc2)C(=O)N[C@@H](Cc2c[nH]c3ccccc23)C(=O)N[C@H](CCCNC(=N)N)C(=O)N[C@@H](CCCCN)C(=O)N[C@@H](Cc2ccccc2)C(=O)NCC(=O)NCCOCCC(=O)N[C@H](CCCCN)C(N)=O)NC(=O)[C@H](CCC(N)=O)NC(=O)[C@H](Cc2c[nH]c3ccccc23)NC(=O)[C@H](CC(=O)O)NC(=O)[C@H](CCCNC(=N)N)NC1=O) [Ac-CRDWQCYW-[(D)Arg]-KFG-[AEP]-[(D)-Lys]-NH2] | > 1 | – |
| Ac-CQTWQCYW[dR][dE]NG[AEA][dK]-NH2 (disulfide 1-6 (inferred)) [Ac-CQTWQCYW-[(D)Arg]-[(D)Glu]-NG-[AEA]-[(D)Lys]-NH2] | > 1 | – |
| Ac-CQTWQCYW[NMeR]ENG[AEA][dK]-NH2 (disulfide 1-6 (inferred)) [Ac-CQTWQCYW-[N-MeArg]-ENG-[AEA]-[(D)-Lys]-NH2, listing 1 of 2 here] | > 1 | – |
| Ac-CRDWQCYWR[dK]FG[PEG1][dK]-NH2 (disulfide 1-6; SMILES CC(=O)N[C@H]1CSSC[C@@H](C(=O)N[C@@H](Cc2ccc(O)cc2)C(=O)N[C@@H](Cc2c[nH]c3ccccc23)C(=O)N[C@@H](CCCNC(=N)N)C(=O)N[C@H](CCCCN)C(=O)N[C@@H](Cc2ccccc2)C(=O)NCC(=O)NCCOCCC(=O)N[C@H](CCCCN)C(N)=O)NC(=O)[C@H](CCC(N)=O)NC(=O)[C@H](Cc2c[nH]c3ccccc23)NC(=O)[C@H](CC(=O)O)NC(=O)[C@H](CCCNC(=N)N)NC1=O) [Ac-CRDWQCYWR-[(D)Lys]-FG-[AEP]-[(D)-Lys]-NH2] | > 1 | – |
| Ac-CQTWQCYWR[NMeR]NG[AEA][dK]-NH2 (disulfide 1-6; SMILES CC(=O)N[C@H]1CSSC[C@@H](C(=O)N[C@@H](Cc2ccc(O)cc2)C(=O)N[C@@H](Cc2c[nH]c3ccccc23)C(=O)N[C@@H](CCCNC(=N)N)C(=O)N(C)[C@@H](CCCNC(=N)N)C(=O)N[C@@H](CC(N)=O)C(=O)NCC(=O)NCCOCC(=O)N[C@H](CCCCN)C(N)=O)NC(=O)[C@H](CCC(N)=O)NC(=O)[C@H](Cc2c[nH]c3ccccc23)NC(=O)[C@H]([C@@H](C)O)NC(=O)[C@H](CCC(N)=O)NC1=O) [Ac-CQTWQCYWR-[N-MeArg]-NG-[AEA]-[(D)-Lys]-NH2] | > 1 | – |
| Ac-CQTWQCYW[NMeR]ENG[AEA][dK]-NH2 (disulfide 1-6 (inferred)) [Ac-CQTWQCYW-[N-MeArg]-ENG-[AEA]-[(D)-Lys]-NH2, listing 2 of 2 here] | > 1 | – |
| Ac-CRDWQCYW[dR][dK]FG[PEG1][dK]-NH2 (disulfide 1-6; SMILES CC(=O)N[C@H]1CSSC[C@@H](C(=O)N[C@@H](Cc2ccc(O)cc2)C(=O)N[C@@H](Cc2c[nH]c3ccccc23)C(=O)N[C@H](CCCNC(=N)N)C(=O)N[C@H](CCCCN)C(=O)N[C@@H](Cc2ccccc2)C(=O)NCC(=O)NCCOCCC(=O)N[C@H](CCCCN)C(N)=O)NC(=O)[C@H](CCC(N)=O)NC(=O)[C@H](Cc2c[nH]c3ccccc23)NC(=O)[C@H](CC(=O)O)NC(=O)[C@H](CCCNC(=N)N)NC1=O) [Ac-CRDWQCYW-[(D)Arg]-[(D)Lys]-FG-[AEP]-[(D)-Lys]-NH2] | > 1 | – |
| Ac-CQTWQCYWR[dE]NG[AEA][dK]-NH2 (disulfide 1-6; SMILES CC(=O)N[C@H]1CSSC[C@@H](C(=O)N[C@@H](Cc2ccc(O)cc2)C(=O)N[C@@H](Cc2c[nH]c3ccccc23)C(=O)N[C@@H](CCCNC(=N)N)C(=O)N[C@H](CCC(=O)O)C(=O)N[C@@H](CC(N)=O)C(=O)NCC(=O)NCCOCC(=O)N[C@H](CCCCN)C(N)=O)NC(=O)[C@H](CCC(N)=O)NC(=O)[C@H](Cc2c[nH]c3ccccc23)NC(=O)[C@H]([C@@H](C)O)NC(=O)[C@H](CCC(N)=O)NC1=O) [Ac-CQTWQCYWR-[(D)Glu]-NG-[AEA[(D)-Lys]-NH2] | > 1 | – |
| Ac-[Abu]QTWQC[AEF][2Nal][Aib]E[Dap](Ac)G-NH2 (thioether 1-6) [Ac-Cyclo-[[Abu]-QTWQC]-[Phe[4-(2-aminoethoxy)]]-[2-Nal]-[Aib]-E-[Dap(Ac)]-G-NH2] | – | < 10 |
| Ac-[Abu]QTWQC[AEF][2Nal][αMeL]QNG-NH2 (thioether 1-6) [Ac-Cyclo-[[Abu]-QTWQC]-[Phe[4-(2-aminoethoxy)]]-[2-Nal]-[α-MeLeu]-QNG-NH2] | – | < 10 |
| Ac-[Abu]QTWQC[AEF][2Nal][Ac5c]ENN-NH2 (thioether 1-6) [Ac-Cyclo-[[Abu]-QTWQC]-[Phe[4-(2-aminoethoxy)]]-[2-Nal]-[Acvc]-ENN-NH2] | – | < 10 |
| Ac-[Abu]QTWQC[AEF][2Nal][Aib]QN[βAla]-NH2 (thioether 1-6) [Ac-Cyclo-[[Abu]-QTWQC]-[Phe[4-(2-aminoethoxy)]]-[2-Nal]-[Aib]-QN-[βAla]-NH2] | – | < 10 |
| Ac-[Abu]QTWQC[AEF][2Nal][αMeL]ENG-NH2 (thioether 1-6) [Ac-Cyclo-[[Abu]-QTWQC]-[Phe[4-(2-aminoethoxy)]]-[2-Nal]-[α-MeLeu]-ENG-NH2] | – | < 10 |
| Ac-[Abu]QTWQC[AEF][2Nal][4‑amino‑4‑carboxy‑piperidine]ENN-NH2 (thioether 1-6) [Ac-Cyclo-[[Abu]-QTWQC]-[Phe[4-(2-aminoethoxy)]]-[2-Nal]-[4-amino-4-carboxy-piperidine]-ENN-NH2] | – | < 10 |
| Ac-[Abu]QTWQC[AEF]W[αMeK]K(Ac)NG-NH2 (thioether 1-6) [Ac-Cyclo-[[Abu]-QTWQC]-[Phe[4-(2-aminoethoxy)]]-W-[α-MeLys]-[Lys(Ac)]-NG-NH2] | – | < 10 |
| Ac-[Abu]QTWQC[AEF][2Nal][αMeL]K(Ac)NG-NH2 (thioether 1-6) [Ac-Cyclo-[[Abu]-QTWQC]-[Phe[4-(2-aminoethoxy)]]-[2-Nal]-[α-MeLeu]-[Lys(Ac)]-NG-NH2] | – | < 10 |
| Ac-[Abu]QTWQC[AEF][2Nal][Cit][Dap]NG-NH2 (thioether 1-6) [Ac-Cyclo-[[Abu]-QTWQC]-[Phe[4-(2-aminoethoxy)]]-[2-Nal]-[Cit]-[Dap]-NG-NH2] | – | < 10 |
